Assay results reported in patent publication US6451982 (SCHERING, dated 2002).

T1: recombinant human interleukin-5 (human, UniProt P05113 20-134)
T1 sequence (looked up): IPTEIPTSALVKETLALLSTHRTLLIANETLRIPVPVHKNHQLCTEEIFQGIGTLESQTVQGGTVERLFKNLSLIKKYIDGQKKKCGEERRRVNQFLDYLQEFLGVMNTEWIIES


What was measured:
[1] = biological target: T1, recombinant human interleukin-5; experiment: inhibition of binding of 0.5 nM radiolabeled human IL-5 to IL-5 receptor alpha chains on transfected COS cells
[2] = biological target: T1, recombinant human interleukin-5; experiment: cell-based or functional assay
[3] = biological target: T1, recombinant human interleukin-5; experiment: competition ELISA on plates coated with human IL-5; competitor biotinylated JES1-39D10
Description: Competition assays were carried out in which binding of the biotinylated antibody to plates coated with human IL-5 was measured in the presence of unlabelled antibody JES1-39D10 or antibody CMx5-1, CMX5-2 or CMX5-5, each of which had been purified by protein A/G affinity chromatography.
EIA plates were treated with 0.1 M NaHCO_3, pH 9.2, for 1 hour at room temperature. Human IL-5 in TBS was then added at […]. The plates were incubated overnight at 4° C. and then blocked with 3% BSA-TBS ml for 1 hour at room temperature. Fifty microliters of 2-fold serially diluted competing antibodies plus the appropriate amount of biotinylated antibody JES1-39D10 (also in a 50 μl volume) were added to each well, and the plates were incubated for 1 hour at room temperature.
The plates were then washed 5 times with TBS-Tween-20, incubated with 1 μg/ml horseradish peroxidase (HRP)-streptavidin conjugate for 1 hour at room temperature, washed 5 times with TBS-Tween-20, and developed with HRP substrate TMB. Absorbance of the samples was then measured spectrophotometrically at 450 nm.

[4] = biological target: T1, recombinant human interleukin-5; experiment: captured antibody on plate, 125I-IL-5 binding, Scatchard analysis
Description: To determine whether the humanized antibodies retained the ability to specifically bind to human IL-5, apparent dissociation constants of antibody/antigen complexes were measured. This was done by coating enzyme immunoassay plates with mouse anti-human IgG_4-Fc (5 µg per ml, 100 ill per well) in 50 mM bicarbonate buffer, pH 9.5. The plates were then blocked at room temperature for 90 minutes with BLOTTO, washed 3 times, and incubated at 37° C. for 2 hours with one of the humanized antibodies, either purified (100 µl per well with a final concentration of 0.05 µg per ml) or in the form of conditioned medium (100 µl per well).
After the plates were washed 3 times, a dilution series of ^125I-labeled human IL-5 at concentrations between 4,000 pM and 2 pM was applied to the wells in each plate in final volumes of 100 µl. All test wells were run in triplicate. Background binding was determined by using a 1000-fold molar excess of unlablled human IL-5 in control wells. The reactions were allowed to equilibrate at room temperature for 2 hours, at which time the wells were aspirated and washed 5 times with TBST. The wells were then separated and counted in a Pharmacia LKB γ-counter. All nonspecific binding controls were run in duplicate. The values obtained for bound human IL-5 were subjected to Scatchard analysis (using RADLIG software) to obtain dissociation constant (kd) values.

IC50 [1] [nM] | IC50 (pM), inhibition of IL-5-induced CD11b expression on HL-60 cells [2] [pM] | IC50 CMX5/IC50 39D10, inhibition of IL-5-induced CD11b expression on HL-60 cells (fold against 39D10) [2] | MOLAR RATIO CMX5/IL-5, inhibition of IL-5-induced CD11b expression on HL-60 cells (molar ratio antibody:IL-5) [2] | molar ratio to biotinylated JES1-39D10 needed to produce the same degree of binding inhibition [3] [molar ratio] | IC50 CMX5/IC50 39D10, inhibition of IL-5-induced CD11b expression on HL-60 cells [2] [fold against 39D10] | MOLAR RATIO CMX5/IL-5, inhibition of IL-5-induced CD11b expression on HL-60 cells [2] | binding result [4] | Molecule
0.15 to 0.55 | 166 | 1 | 0.83 | 1 | – | – | – | monoclonal antibody JES1-39D10
0.35 to 0.7 | 467 | – | – | ~1.4 | 2.8 | 2.3 molar ratio antibody:IL-5 | – | humanized antibody CMX5-2 (antibody, V domains shown) VH: QVKLVQAGGGVVQPGRSLRLSCIASGFTFSSNSVNWIRQAPGKGLEWVALIWSNGDTDYNSAIKSRFTISRDNSKSTLYMQMNSLRTEDTAVYFCAREYYGYFDYWGQGVLVTVSS VL: DIQMTQSPSSLSVSVGDRVTITCLASEGISSYLAWYQQKPGLAPKLLIYGANSLQTGVPSRFSGSGSATDFTLTISSLQPEDIATYYCQQSYKFPNTFGQGTKVDVKR
– | – | – | – | – | – | – | no binding | humanized antibody CMX5-4 (antibody, V domains shown, VH HIL minimal, VL LAY minimal) VH: QVKLVQAGGGVVQPGRSLRLSCIASGLSLTSNGMHWVRQAPGKGLEWVAVIWSNGSRTYYGDSVKGRFTISRDNSKRTLYMQMNSLRTEDTAVYYCAREYYGYFDYWGQGVLVTVSS VL: DIQMTQSPSSLSVSVGDRVTITCQASEGISSYLNWYQQKPGLAPKLLIYGANTREAGVPSRFSGSGSGTDFTLTISSLQPEDIATYYCQQSYKFPNTFGQGTKVDVKR
– | – | – | – | – | – | – | binds | humanized antibody CMX5-3 (antibody, V domains shown, VH LAY maximal, VL LAY maximal) VH: EVQLLESGGGLVQPGGSLRLSCAVSGLSLTSNSVNWIRQAPGKGLEWVALIWSNGDTDYNSAIKSRFTISRNDSKNTLYLQMNGLQAEVSAIYFCAREYYGYFDYWGQGTLVTVSS VL: DIQMTQSPSSLSVSVGDRVTITCLASEGISSYLAWYQQKPGLAPKLLIYGANSLQTGVPSRFSGSGSATDFTLTISSLQPEDIATYYCQQSYKFPNTFGQGTKVDVKR
1.5 to 3 | 1470 | – | – | ~3.3 | 8.8 | 7.3 molar ratio antibody:IL-5 | – | humanized antibody CMX5-1 (antibody, V domains shown, VH HIL maximal, VL LAY maximal; also called CMX1; antibody from clone CJA25) VH: QVKLVQAGGGVVQPGRSLRLSCIVSGLSLTSNSVNWIRQAPGKGLEWVALIWSNGDTDYNSAIKSRFTISRDNSKSTLYMQMNSLRTEDTAVYFCAREYYGYFDYWGQGVLVTVSS VL: DIQMTQSPSSLSVSVGDRVTITCLASEGISSYLAWYQQKPGLAPLLLIYGANSLQTGVPSRFSGSGSATDFTLTISSLQPEDIATYYCQQSYKFPNTFGQGTKVDVKR
0.5 to 1.1 | 800 | – | – | ~1.4 | 4.8 | 4 molar ratio antibody:IL-5 | – | humanized antibody CMX5-5 (antibody, V domains shown, Kabat CDRs only on HIL VH and LAY VL) VH: QVKLVQAGGGVVQPGRSLRLSCIASGFTFSSNSVNWVRQAPGKGLEWVALIWSNGDTDYNSAIKSRFTISRDNSKRTLYMQMNSLRTEDTAVYYCAREYYGYFDYWGQGVLVTVSS VL: DIQMTQSPSSLSVSVGDRVTITCLASEGISSYLAWYQQKPGLAPKLLIYGANSLQTGVPSRFSGSGSGTDFTFTISSLQPEDIATYYCQQSYKFPNTFGQGTKVDVKR
